B1: his6-Flag (HF)-Doa1 (natural protein, S. cerevisiae, UniProt P36037 1-715, looked up)
chain: MGYQLSATLKGHDQDVRDVVAVDDSKVASVSRDGTVRLWSKDDQWLGTVVYTGQGFLNSVCYDSEKELLLFGGKDTMINGVPLFATSGEDPLYTLIGHQGNVCSLSFQDGVVISGSWDKTAKVWKEGSLVYNLQAHNASVWDAKVVSFSENKFLTASADKTIKLWQNDKVIKTFSGIHNDVVRHLAVVDDGHFISCSNDGLIKLVDMHTGDVLRTYEGHESFVYCIKLLPNGDIVSCGEDRTVRIWSKENGSLKQVITLPAISIWSVDCMSNGDIIVGSSDNLVRIFSQEKSRWASEDEINELSTQVEKSTISSKTIEFDESKLSPYEILQSPGRKEGQIVVVKSPQGTIEAHQFSNSSWKKVGDVVGAGATGNDKKIEFEGKTYDYVFDVDIEDGKPPLKLPINVSDNPYTAADNFLARYELPMSYRDQVVQFILKNTNGISLDQPNDNASSSAVSPSKTSVMKVLPVKQYLIMENYNPDTIFNGIVKINSNEKTFDDEILAQIGGALHDIDESWELLLSFANTIRSNWEIKTPAYDIVRLIVKKLPYSSDIKDYIEEGLGNKNITLTMLTVRILVNCFNNENWGVKLLESNQVYKSIFETIDTEFSQASAKQSQNLAIAVSTLIFNYSALVTKGNSDLELLPIVADAINTKYGPLEEYQECEEAAYRLTVAYGNLATVEPTLRQFANSVTWLANIKRSYGNVPRFKDIFDDLS
notes: Doa1, Cdc48 cofactor
B3: MBP-Wss1 (wild type) (enzyme, S. cerevisiae, UniProt P38838 1-269, looked up)
chain: MKTEGIKSPSAKYHDMAGSQRIPHKNPHIQKVAVLQSKPNKEDALNLIKEIAHKVSYLMKENHFKVTNLVEFYPRDQRLLGMNVNHGSKIMLRLRCSTDEFQFLPMECIMGTMLHELTHNLFGPHDKKFYNKLDELIGRQWVIEQRGLYDTFLGNGQRLGGRANLRSNRYPMTGISTNTGIVRKRGKGVKLGSLHPEGISSIDRGNSPRELAAFAAERRYRDDRWCGETKNNKDQIISDNISSSLEVVILDDDDEVLPGDTLIEVIDLT
notes: Wss1, yeast metalloprotease; Expressed with the pMAL-c2 vector; also called MBP-Wss1 WT; Wss1-beads (CNBr-crosslinked MBP-Wss1 beads); source: E. coli BL21pLysS (DE3), purified on amylose resin, eluted with maltose
B4: GST-Cdc48 (full length) (enzyme, S. cerevisiae, UniProt P25694 1-835, looked up)
chain: MGEEHKPLLDASGVDPREEDKTATAILRRKKKDNMLLVDDAINDDNSVIAINSNTMDKLELFRGDTVLVKGKKRKDTVLIVLIDDELEDGACRINRVVRNNLRIRLGDLVTIHPCPDIKYATRISVLPIADTIEGITGNLFDVFLKPYFVEAYRPVRKGDHFVVRGGMRQVEFKVVDVEPEEYAVVAQDTIIHWEGEPINREDEENNMNEVGYDDIGGCRKQMAQIREMVELPLRHPQLFKAIGIKPPRGVLMYGPPGTGKTLMARAVANETGAFFFLINGPEVMSKMAGESESNLRKAFEEAEKNAPAIIFIDEIDSIAPKRDKTNGEVERRVVSQLLTLMDGMKARSNVVVIAATNRPNSIDPALRRFGRFDREVDIGIPDATGRLEVLRIHTKNMKLADDVDLEALAAETHGYVGADIASLCSEAAMQQIREKMDLIDLDEDEIDAEVLDSLGVTMDNFRFALGNSNPSALRETVVESVNVTWDDVGGLDEIKEELKETVEYPVLHPDQYTKFGLSPSKGVLFYGPPGTGKTLLAKAVATEVSANFISVKGPELLSMWYGESESNIRDIFDKARAAAPTVVFLDELDSIAKARGGSLGDAGGASDRVVNQLLTEMDGMNAKKNVFVIGATNRPDQIDPAILRPGRLDQLIYVPLPDENARLSILNAQLRKTPLEPGLELTAIAKATQGFSGADLLYIVQRAAKYAIKDSIEAHRQHEAEKEVKVEGEDVEMTDEGAKAEQEPEVDPVPYITKEHFAEAMKTAKRSVSDAELRRYEAYSQQMKASRGQFSNFNFNDAPLGTTATDNANSNNSAPSGAGAAFGSNAEEDDDLYS
notes: Cdc48, AAA ATPase; source: expressed in bacteria, purified

Legend:
Settings in all cases: both partners purified
GST-Cdc48 (full length) = target: B4; assay: pull-down; Cdc48 complexes preformed from purified GST-Cdc48 with a double molar excess of adaptors; MBP-Wss1 added in stoichiometric amount; glutathione beads; PAGE with Coomassie staining, ImageJ
his6-Flag (HF)-Doa1 [1] = target: B1; assay: pull-down; purified HA-Wss1 (full length or truncated) on anti-HA beads with purified His6-Cdc48, GST-Cdc48 or HF-Doa1 (full length or truncated); western blot
his6-Flag (HF)-Doa1 [2] = target: B1; assay: pull-down; purified MBP-Wss1 proteins on amylose beads with purified Cdc48 or adaptor proteins; PAGE with Coomassie staining, western blot with α-His6, ImageJ
MBP-Wss1 (wild type) = target: B3; assay: as above

For B1, the “stoichiometry N” value (GST-Cdc48 (full length)) was 1.

B2: HA-Wss1 (recombinant, wild type) (enzyme, S. cerevisiae, UniProt P38838 1-269, looked up)
chain: MKTEGIKSPSAKYHDMAGSQRIPHKNPHIQKVAVLQSKPNKEDALNLIKEIAHKVSYLMKENHFKVTNLVEFYPRDQRLLGMNVNHGSKIMLRLRCSTDEFQFLPMECIMGTMLHELTHNLFGPHDKKFYNKLDELIGRQWVIEQRGLYDTFLGNGQRLGGRANLRSNRYPMTGISTNTGIVRKRGKGVKLGSLHPEGISSIDRGNSPRELAAFAAERRYRDDRWCGETKNNKDQIISDNISSSLEVVILDDDDEVLPGDTLIEVIDLT
notes: Wss1, yeast metalloprotease (WLM family); Produced with the pRSET-B vector; also called WT; WT-Wss1; source: E. coli ArcticExpress (DE3), soluble, purified on anti-HA beads and eluted with HA peptide
B2: binds (his6-Flag (HF)-Doa1 [1]).

With B3 the binding result (his6-Flag (HF)-Doa1 [2]) was “binds” and the “stoichiometry N” value (GST-Cdc48 (full length)) was 1.

For B4, the “stoichiometry N” value (MBP-Wss1 (wild type)) was 1.

Reference: article PMC4559962, “Wss1 metalloprotease partners with Cdc48/Doa1 in processing genotoxic SUMO conjugates” (eLife, 2015)
